This note sets out measurements from patent US20200024330A1.

Where only a bound is given, the exact number is not on record here.

What all share (test): cell-based or functional assay
Test [1] has as its target HIV-1 92TH021 envelope protein (Env) on pseudotyped virus (HIV-1 isolate 92TH021).
The target in test [2] is HIV-1 93IN905 envelope glycoprotein (Env) (HIV-1).
The target of test [3] is HIV-1 93IN905 envelope protein (Env) on pseudotyped virus (HIV-1 isolate 93IN905).
In test [4] the target is HIV-1 Env of isolate 94KE105 (HIV-1).
The target in test [5] is HIV-1 Env of isolate MGRM-A-003 (HIV-1).
For test [6], the target named is HIV-1 Env of isolate MGRM-A-005 (HIV-1).
Test [7] deals with HIV-1 Env of isolate MGRM-A-007 (HIV-1).
Test [8] concerns the target HIV-1 Env of isolate MGRM-A-010 (HIV-1).
Test [9] addresses HIV-1 Env of isolate MGRM-A-013 (HIV-1).
The target of test [10] is HIV-1 Env of isolate MGRM-A-014 (HIV-1).
Test [11] has as its target HIV-1 Env of isolate MGRM-D-024 (HIV-1).
Test [12] deals with HIV-1 Env of isolate MGRM-D-026 (HIV-1).
In test [13] the target is HIV-1 Env of isolate MGRM-D-028 (HIV-1).
For test [14], the target named is HIV-1 Env of isolate MGRM-F1-012 (HIV-1).
For test [15], the target named is HIV-1 Env of isolate VLGCA1 (HIV-1).
The target in test [16] is HIV-1 IAVI_C22 envelope protein (Env) on pseudotyped virus (HIV-1 isolate IAVI C22).
The target in test [17] is HIV-1 JRCSF envelope glycoprotein (Env) (HIV-1) (UniProt P20871).
Test [18] addresses HIV-1 MGRM-F1-013 Env (pseudovirus) (HIV-1).
Test [19] concerns the target HIV-1 NL43 envelope protein (Env) on pseudotyped virus (HIV-1 NL43).
In test [20] the target is HIV-1 Env of isolate MGRM-A-001 (HIV-1).
In test [21] the target is HIV-1 Env of isolate MGRM-A-006 (HIV-1).
Test [22] addresses HIV-1 92UG005 Env (on pseudovirus) (HIV-1).
Test [23] addresses HIV-1 92UG024 Env (on pseudovirus) (HIV-1).
Test [24] has as its target HIV-1 93IN905 Env (on pseudovirus) (HIV-1).
For test [25], the target named is HIV-1 APV17 Env (on pseudovirus) (HIV-1).
Test [26] concerns the target HIV-1 CMU02 Env (on pseudovirus) (HIV-1).
Test [27] concerns the target HIV-1 JRCSF Env (on pseudovirus) (HIV-1) (UniProt P20871).
Test [28] addresses HIV-1 JRFL Env (on pseudovirus) (HIV-1).
Test [29] addresses HIV-1 MGRM-D-001 Env (on pseudovirus) (HIV-1).
Test [30] deals with HIV-1 MGRM-D-018 Env (on pseudovirus) (HIV-1).
Test [31] deals with HIV-1 NL43 Env (on pseudovirus) (HIV-1).
Test [32] concerns the target HIV-1 envelope glycoprotein (Env) of isolate MGRM-C-014, on pseudovirus (HIV-1).
The target of test [33] is HIV-1 envelope glycoprotein (Env) of isolate MGRM-C-015, on pseudovirus (HIV-1).
Test [34] concerns the target HIV-1 envelope glycoprotein (Env) of isolate MGRM-C-017, on pseudovirus (HIV-1).
Test [35] has as its target HIV-1 envelope glycoprotein (Env) of isolate MGRM-C-019, on pseudovirus (HIV-1).
Test [36] deals with HIV-1 envelope glycoprotein (Env) of isolate MGRM-C-020, on pseudovirus (HIV-1).
Test [37] concerns the target HIV-1 envelope glycoprotein (Env) of isolate MGRM-C-024, on pseudovirus (HIV-1).
The target in test [38] is HIV-1 envelope glycoprotein (Env) of isolate MGRM-C-025, on pseudovirus (HIV-1).
For test [39], the target named is HIV-1 envelope glycoprotein (Env) of isolate MGRM-C-027, on pseudovirus (HIV-1).

PGT-144 (4970_K22) (antibody), sequence (VH): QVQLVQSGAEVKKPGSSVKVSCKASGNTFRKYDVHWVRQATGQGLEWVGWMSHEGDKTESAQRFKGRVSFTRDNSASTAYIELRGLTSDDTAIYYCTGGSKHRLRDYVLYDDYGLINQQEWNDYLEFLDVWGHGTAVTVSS
PGT-144 (4970_K22) (antibody), sequence (VL): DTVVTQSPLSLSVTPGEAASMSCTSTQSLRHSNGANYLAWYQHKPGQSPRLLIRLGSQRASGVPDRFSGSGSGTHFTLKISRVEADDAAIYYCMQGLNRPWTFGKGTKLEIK

Usually IC50 stands for the concentration that gives 50% inhibition. A lower IC50 goes with higher potency. As for 1496_C09 (PG9) (TCN-109) (antibody), the IC50, pseudovirus neutralization, 1 hour Virus/Ab Incubation was found to be 0.0612 µg/mL in [1], 0.144 µg/mL in test [3], 24.9 µg/mL in [16] and 0.294 µg/mL in test [19]. For the same substance, the IC50, pseudovirus neutralization, 18 hour Virus/Ab Incubation stood at 0.0571 µg/mL in test [1], 0.0619 µg/mL in [3], 2.11 µg/mL in [16] and 38 µg/mL in test [19]. Besides, the values for the IC50 neutralization in test [2] and in test [17] were 0.048 µg/mL and 0.0048 µg/mL, respectively. Further, the IC50 (µg/mL), pseudovirus neutralization in [4] was determined as 37.9 µg/mL; in test [8], 0.022 µg/mL; in test [9] it was 0.122 µg/mL; in test [10] it was 1.25 µg/mL; in [11] it was 0.038 µg/mL; in test [12], 23.7 µg/mL. Further, the figures for the IC50 (µg/mL), pseudovirus neutralization in [13], in [14] and in test [15] were 20.2 µg/mL, 0.023 µg/mL and 0.069 µg/mL, respectively. For the same substance, the IC50 in test [5] was 1.94 µg/mL; in test [6] it was 0.75 µg/mL; in test [7], 1.06 µg/mL. Also, the IC50 (µg/ml), pseudovirus neutralization in test [18] is 0.56 µg/mL.

Consider PGT-121 (antibody), for which the IC50 neutralization in test [2] was 0.0082 µg/mL; in [17] it was 0.0343 µg/mL. Further, the IC50 (µg/mL), pseudovirus neutralization is 0.029 µg/mL in test [4]; > 50 µg/mL in [20]; 0.435 µg/mL in test [5]; > 50 µg/mL in test [6]; 0.396 µg/mL in [21]; > 50 µg/mL in test [7]. The IC50 (µg/mL), pseudovirus neutralization was 2.44 µg/mL in test [8], 0.387 µg/mL in test [9], 0.003 µg/mL in test [10] and > 50 µg/mL in test [15].

As for PGT-122 (antibody), the IC50 neutralization in test [2] came to 0.0138 µg/mL; in test [17] it was 0.0727 µg/mL. Further, the IC50 (µg/mL), pseudovirus neutralization in [4] was 0.056 µg/mL; in test [20], > 50 µg/mL; in [5], 3.79 µg/mL; in test [6] it was > 50 µg/mL; in [21], > 50 µg/mL; in test [7], > 50 µg/mL. The IC50 (µg/mL), pseudovirus neutralization in [8] was 2.51 µg/mL; in test [9], 2.47 µg/mL; in test [10], 0.007 µg/mL; in test [15] it was > 50 µg/mL.

With PGT-144 (4970_K22) (antibody), the IC50 (ug/ml), pseudovirus neutralization is > 10 µg/mL in test [22]; > 10 µg/mL in test [23]; 0.158 µg/mL in test [24]; 5.12 µg/mL in test [25]; > 10 µg/mL in test [26]; 0.128 µg/mL in test [27]. For the same substance, the IC50 (ug/ml), pseudovirus neutralization in test [28], in test [29], in test [30] and in [31] was > 10 µg/mL in each case. The IC50, pseudovirus neutralization in test [32] was > 50 µg/mL; in [33], 0.236 µg/mL; in [34] it was 23 µg/mL; in [35] it was 0.513 µg/mL; in [36], 1.29 µg/mL; in test [37] it was 2.06 µg/mL. In addition, the IC50, pseudovirus neutralization was 17.6 µg/mL in test [38] and > 50 µg/mL in test [39].

Turning to PGV04 (antibody), the IC50 (µg/mL), pseudovirus neutralization was 2.98 µg/mL in test [4]; 0.205 µg/mL in test [8]; 0.086 µg/mL in [9]; 0.172 µg/mL in test [10]; > 50 µg/mL in test [11]; 1.76 µg/mL in [12]. Besides, the IC50 (µg/mL), pseudovirus neutralization in test [13] was 1.01 µg/mL; in test [14], 0.25 µg/mL; in test [15] it was 0.024 µg/mL. Besides, the IC50 in [20] came to 6.78 µg/mL; in [5] it was 0.128 µg/mL; in [6] it was 0.134 µg/mL; in [21], 0.244 µg/mL; in test [7], 7.21 µg/mL.
